Results published in the nanobody polyreactivity screen of Harvey et al. (2022).

Assay: yeast display, Sf9 membrane polyspecificity reagent, FACS + sequencing; frameworks hold sequencing errors
How it was run: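 Polyreactivity labels are assigned by the sorting gate from which each nanobody was recovered. The gates were low and high (top ~1%), set on anti-HA fluorescence for expression and streptavidin fluorescence for reagent binding. Before sorting, galactose-induced (36–48 hours) yeast display cells were stained for 1 hour at 4 °C with 10% biotinylated, detergent-solubilized Sf9 membrane reagent.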

Sequence	polyreactivity (PSR sort gate)
QVQLVESGGGLVQAGGSLRLSCAASGSIFRRTTQGGYRQAPGKERELVAAITYRGGSTYYADSVKGRFTISRDNAKNTVYFQMHSLKPEDTAVYYCARYHWYYPVSKSDSWGQGTQVTVSS	high polyreactivity
QVQLVESGGGLVQAGGSLRLSCAASGSIFRRYAMGWYGQAPGKERELVAAISWSGGSTYYADSVKGRFTISRDNAKNTVYLQMNSLKPEDTAVYYCAARHRQQKLDYWGQGTQVTVSS	high polyreactivity
QVQLVESGGGLVQAGGSLRLSCAASGSIFRRYAMGWYRQAPGKERELVAAISTRGGSTYYADSVKGRFTISRDNAKNTVYLQMNSLKPEDTAVYYCAVKGSGGPKYDYWGQGTQVTVAS	high polyreactivity
QVQLVESGGGLVQAGGSLRLSCAASGSIFRRYTMGWYRQAPRKERELVAAISRVGNTNYADSVKGRFTISRDNAKNTVYLQLNSLKPEDTAVYYCAARGIGYRYTPGLNYWGQGTQVTVSS	high polyreactivity
QVQLVESGGGLVQAGGSLRLSCAASGSIFRSYAMGWYRPAPGKERELVASITWRGGRTYYADSVKGRFTISRDNAKNTVYLQMNSLKPEDTAVYYCAVLWTPAGGYYFRYDYWGQGTQVTVSS	low polyreactivity
QVQLVESGGGLVQAGGSLRLSCAASGSIFRSYAMGWYRQAPGKEREFVAAIRNSSGRTYYADSVKGRFTISRDNAKNTVYLQMNSLKPEDTAVYYCAARLPRTYQGGKLYRLQYSWGQGTQVTVSS	high polyreactivity
QVQLVESGGGLVQAGGSLRLSCAASGSIFRSYAMGWYRQAPGKERELVAAITYSGGGTYYADSVKGRFTISRDNAKTTVYLQMNSLKPEDTAVYYCNAVGGIYDFDYWGQGTQVTVSS	high polyreactivity
QVQLVESGGGLVQAGGSLRLSCAASGSIFRSYAMGWYRQAPGKERELVAGISYSGGSTYYADSVKGRFTISRDNAKNTVYLQMNSLKPEDTAVYYCATVSYYDRYDYDYWGQGTQVTVSS	low polyreactivity
QVQLVESGGGLVQAGGSLRLSCAASGSIFRSYAMGWYRQAPGKERELVAGISYSGGSTYYADSVKGRFTISRDNAKNTVYLQMNSLKPEDTAVYYCNTRTGAFFLSKPYDYWGQGTQVTVSS	low polyreactivity
QVQLVESGGGLVQAGGSLRLSCAASGSIFRSYAMGWYRQAPGKERELVASISRRGGSTYYADSVKGRFTISRDNAKNTVYFQMNSLKPEDTAVYYCAAVRYNSRVSTTPSEMYYWGQGTLVTVSS	low polyreactivity
QVQLVESGGGLVQAGGSLRLSCAASGSIFRSYDMGMYRQAPGKERELVADITRTGGNTYYADSVKGRFTISRDNAKNTVYLQMNSLKPEDTAVYYCAATYILTVSVFSYVWPYDYWGQGTQVTVSS	high polyreactivity
QVQLVESGGGLVQAGGSLRLSCAASGSIFRSYTMGWYRQAPGKEREFVAAITKRGGSTYYADSVKGRFTISRDNAKNTVYLQMNSLKPEDTAVYYCAAVAGHYYYFRELGYWGQGTQVTVSS	high polyreactivity
QVQLVESGGGLVQAGGSLRLSCAASGSIFRSYVMGWSRQAPGKERELVAAISRRGVRTFYADSVKGRFTISRDNAKNTVYLQMNSLKPEDTAVYYCAAQPYKGTGYDYWGQGTQVTVSS	high polyreactivity
QVQLVESGGGLVQAGGSLRLSCAASGSIFRTYAMGWYRQSPGKERELVAAITSDGSTYYADSVKGRFTISRDNAKNTVYLKMNRLKPEDTAVYYFAAASQEYDYHYYYWGQGTQVTVSS	low polyreactivity
QVQLVESGGGLVQAGGSLRLSCAASGSIFRVNAMGWYRQAPGKERELVAAISRRGGRRYYADSVKGRFTISRDNAKNTVYLQMNSLKPEDTAVYYCAAGVSVSASPYNGFDYWGQGTQVTVSS	high polyreactivity
QVQLVESGGGLVQAGGSLRLSCAASGSIFRVYAMGWYRQAPGKERELVASISRRGGSTYYADSVKGRFTISRDNAKNTVYLQMNSLKPEDTAVYYCAAEFVIGGHGYDYWGQGTQVTVSS	high polyreactivity
QVQLVESGGGLVQAGGSLRLSCAASGSIFRVYAMGWYRQAPGKERELVAVGSTYYADSVKGRFTISRDNAKNTVYLQMNSLKPEDTAVYYCARRGKSRYSYHYWGQGTQVTVSS	high polyreactivity
